Results on 22 sequences are retold here after the DeepSol protein solubility set.

This data set is described as follows: soluble on expression in E. coli; label from the status in PepcDB or PDB records.
In the case of “NLAHDTVFEVRNVTSRDRKKVRDISFSVCRGEILGFAGLVGSGRTELMNCLFGVDKRAGGEIRLNGKDISPRSPLDAVKKGMAYITESRRDNGFFPNFSIAQNIAISRSLKDGGYKGAMGLFHEVDEQRTAEAQRELLALKCHSVNQNITELSGGNQQKVLISKWLCCHPEVIIFDEPTRGIDVGAKAEIYKVMRQLADDGKVILMVSSELPEIITVCDRIAVFCEGRLTQILTNRDDMSEEEIMAWALPHE”, the “soluble on expression in E. coli” value was “not soluble”.

Consider “NNINVITDQMGNLDIKSNDNINQNTQNSNVASDLNLLTQNKYLENILMMNTYGVNYDHLFLPQNVAYLAAQQLSNNIMNNRNQINAAYTSQQYPNQSIPIKNIYDQSHLKYQQNSSSWRPPLNNGNIYDGVKSNPMGLHILQNGIDLYTNVDSNSVTSAINFDKYDSIPVSVTGPDYSATNVIENFDELKLDPTIRNNILLASYQRPTPIQKNAIPAILEHRDIMACAQTGSGKTAAFLIPIINHLVCQDLNQQRYSKTAYPKCLILAPTRELAIQILSESQKFSLNTPLRSCVVYGGADTHSQIREVQMGCHLLVATPGRLVDFIEKNKISLEFCKYIVLDEADRMLDMGFEPQIRKIIEESNMPSGINRQTLMFSATFPKEIQKLAADFLYNYIFMTVGRVGSTSDSIKQEIIYMTDVEKLNYLKNIFNTTAPNTLILIFVETKKGADSLARFLLSKGYPVSSIHGDRSQVEREAALSMFRNGQCPILVATAVAARGLDIPNVKHVINYDLPSDIEEYVHRIGRTGRLGNHGRATSFYVDKNNNIAIDLVDLLKEANQIVPQWLSALADELKRNSTMGSNNKRHNQRRYKNGNFGGRDYRQGPSNVNMNSGVNPDYFISGSVAPRHAKLNNGNYFPRSNELHDQHQKQNNNNNQVISNTFHTGISASHLIPGYATFNRQQAPLHFIPHQTNNTQFLSSSGQMALYNRMQNSGHMAPNQRFPNEPIHHQQEQLPITYNFSKNLPYLGQSYSGHNNNNNNNNNTSKINDSDSCYFGNKTPR”, for which the “soluble on expression in E. coli” value is “soluble”.

Regarding “NQVEKSLISSYEQSLNQRIDNLSYYIEQEYKSDNDSTVIKDDVSRILNDFTKSDEVREISFVDKSYEVVGSSKPYGEEVAGKQTTDLIFKRIFSTKQSYLRKYYDPKSKIRVLISAKPVMTENQEVVGAIYVVASMEDVFNQMKTINT”, the “soluble on expression in E. coli” value is given as “not soluble”.

With “NSLFNQEVQIPLTESYCGPCPKNWICYKNNCYQFFDESKNWYESQASCMSQNASLLKVYSKEDQDLLKLVKSYHWMGLVHIPTNGSWQWEDGSILSPNLLTIIEMQKGDCALYASSFKGYIENCSTPNTYICMQRTV”, the “soluble on expression in E. coli” value is “soluble”.

“NSLSTDMSVNRDNRTITSSIMRVSNSSELIQFKNKTAPYFSEKRNVEVNINGVAKDIYGRQIVCRHLASYWEMNFMETNGKVNYQLLSTPDAIAKNVCLEKTEDFSKSPAYIYFVENKKWGTVITNFFYNMKKNGDFVRTLSACTLNHQMALGLKIKRVQESEKWVVQFFDPNRTVTHKRTVFTCDSHFELSQLSAKDFFDDFYWKIYGLEQPGQVIFEDRHNSPLTNTVKLLPDELINSRVIYHAITKNLTEVLFILMEKYKNGEISQSKLVNLLATRSSDGTPAFYIALQNGYSDIIQVYGKILNMCNLSQETILTLLAAVGANNVPGLCMSFMNGHVDTIKAYGEIVFKTPLTSDKRLYLLAAKDSHDLPGLFFALQNGHADSIRMFGSLLNKKMLSSEQIKELLKVKHGLFMALQNGHTKAIMAYGDILKILPPHQEYIDELLWIKNPNGTSGLFMAFYNGHTETIRAFCNILKNYSFTTRRLVEMLSATNKDGIPGVFVSVVNRDKETILEYCRIIKENNLEPDTIAEQFSKKMKKTFIEIINRFNHFL”: the “soluble on expression in E. coli” value is given as “soluble”.

For the sequence “NVHREWAANEKTAMESALGMSYAGKRALVCMKHVGMNVAADCFMNAAITGANGGMVIVAADDPSMHSSQNEQDSRVYGQFAMIPVMEPSNQQEAYDMTRLAFDLSERLGTPVMMRITTRLAHSRAGVVQTEPIGENELHLPEDKRQYVLLPGIAKKRYRILLDKQTDFVRESENSPYTEYVDAADKSKGIVACGIAYNYLMEAFKAQVPYPVLKVTQYPIPHKQMERLLNECGDIVVMEEGYPVVEQLLKGFPGLERIKGRLDGTLPRDGELNPDHVAKAFNIPVVEGEPIPDLVAARPPALCKGCSHRDVYDALNEVLTEYPNGRVFSDIGCYTLGALPPYEAINSCVDMGASITMAKGAADAGLFPAVSVIGDSTFTHSGITGLLDAINENSNITVIISDNESISMTGGQH”, the “soluble on expression in E. coli” value is on record as “not soluble”.

As for “NYMGNPWTEYMAKYDIEEVHGSGIRVDLGEDAEVAGTQYRLPSGKCPVFGKGIIIENSNTTFLTPVATGNQYLKDGGFAFPPTEPLMSPMTLDEMRHFYKDNKYVKNLDELTLCSRHAGNMIPDNDKNSNYKYPAVYDDKDKKCHILYIAAQENNGPRYCNKDESKRNSMFCFRPAKDISFQNYTYLSKNVVDNWEKVCPRKNLQNAKFGLWVDGNCEDIPHVNEFPAIDLFECNKLVFELSASDQPKQYEQHLTDYEKIKEGFKNKNASMIKSAFLPTGAFKADRYKSHGKGYNWGNYNTETQKCEIFNVKPTCLINNSSYIATTALSHPIEVE”, the “soluble on expression in E. coli” value was “soluble”.

Take “PADLSGTWTLLSSDNFEGYMLALGIDFATRKIAKLLKPQKVIEQNGDSFTIHTNSSLRNYFVKFKVGEEFDEDNRGLDNRKCKSLVIWDNDRLTCIQKGEKKNRGWTHWIEGDKLHLEMFCEGQVCKQTFQRA”: the “soluble on expression in E. coli” value is on record as “soluble”.

Consider “PALVLEGDMTAPTLVIGWGSTFGSLKSAVQQCLEQGLPVAYLHLRHLNPLPDDLGSLLKKYDKVLVAELNSGQLCQLIRAVYLVDAQSISQCNGQPFSVNPLVSAIKAEANYEQQL”, for which the “soluble on expression in E. coli” value is listed as “not soluble”.

As for “PDLIYYRNADGVFSGCNRAMEELTGKKEHQLVGLSPWDVYSKEIAQPIVDTDQKVFSDNQAITYEQWLEYPDGRKHYFELRKVPFYSKD”, the “soluble on expression in E. coli” value is listed as “not soluble”.

“PGAPRRLIDAALAAGAQGLVIEAMGSGNVGTDIGVALGEALDAGIPVVISTRVPRGEVFGAYGGAGGGKTLASKGAVNSTYFRSGQARVLLAIAIASGVHPATLL”: the “soluble on expression in E. coli” value is given as “not soluble”.

With “PGRFALVFKDVTDRRRSEEALRESEAMFRSLTEAMPQLVWSARPDGSCDFFNRRWTDCTGASTEMAMGDGWRAFYHPDDQPAIDRLWPKALRTGEHYEIEYRLRHRDGSYRWMLGRGVPVRDEAGGILRWMGTCTDIH”, the “soluble on expression in E. coli” value is recorded as “not soluble”.

As to “PHANGLEQISGGDTNMFRLAKEQGYETYFYSAQAENEMAILNLIGKKWIDHLIQPTQLGYGNGDNMPDEKLLPLFDKINLQQGKHFIVLHQRGSHAPYGALLQPQDKVFGEADIVDKYDNTIHKTDQMIQTVFEQLQKQPDGNWLFAYTSDHGQYVRQDIYNQGTVQPDSYLVPLVLYSPDKAVQQAANQAFAPCEIAFHQQLSTFLIHTLGYDMPVSGCREGSVTGNLITGDAGSLNIRDGKAEYVYPQ”, the “soluble on expression in E. coli” value is “not soluble”.

Regarding “PKIENPILIEGYPGIGLVGHIAANFLAKELKMEVIGYVESSFIPPMSLILEGKPNPPLRFYGKDNIIIAVADIYLPPTLINEIAKEIANYLEQNKAEKVISLGGMGIGIFKDKFEVWGVGGTEEENKELQDLGVKILEYGSISGMSGKLLWEASRRGLKSYVILGETFGDRPDPRAAANVVEVLDRMLTLNVSVEPLLKEAEMIEEQLRKMHEQMEKARRSVEKQYETMYL”, the “soluble on expression in E. coli” value was “not soluble”.

Consider “PKLPTISQFNVTPFLAFISPDYKTHIDPNEVESVFEVPANHILNPNKLYSSKFELKRSSHRVFAIPYRQHFIWGMTAQIIESMQKHIISG”, for which the “soluble on expression in E. coli” value is recorded as “not soluble”.

Regarding “PLGLAPTASTTATLAMGDALAVALLIERGFRPEDFALFHPGGSLGKKLLLTVGDLMHSGDAVPLVGSATPIRDALFVITAKGLGITGVCAEDGALVGVVTDGDLRRSLGKGVDILNQPAGEIMTRNPKRINRSELAAKALQVMESHSITSLFVFDDTADNRPVGVIHLHDLLRA”, the “soluble on expression in E. coli” value is “not soluble”.

Turning to “PLVKISGSSTVFPITEAVSEDFQAAKKGAIMVTAGIAGTGGGFKKFCRDEVDIVNASRPILSSEMEQCRQNGVQYIEMPIAFDALTVVVNPGNDWIKSMTVAELKKIWEPAAQEKILNWNQVNPAWPNARIKLFGAGADS”, the “soluble on expression in E. coli” value is recorded as “not soluble”.

Regarding “PNIEFFTLKTPDGSELDSVQVTGEDEEKKPMGERKFIITCIARDQNFINWIKDLNYTAKNLGATAISFNYRGVDYSRGLVWTENNLVDDILAQVQRLISLGADPKNICLDGMCIGGAVATIAAAKLHEKG”, the “soluble on expression in E. coli” value was “not soluble”.

“PNKDVKIVKEVLLYKGSPFTGNIIMNTEDQKDGYIGGISLKNGHLDGLSELKNDRQGQHMRFTVVGGKFDGELIMNDPSQNTYIMLDINKGAIVKYLADIQGVYKYDLNFVNNLANGSMEAQGQIFTFKNGIAKGPQGQELKLTLNPATGDLEMEAFVNGKAAGKQTIPNVLTPQYLESFLFQSITDTNN”: the “soluble on expression in E. coli” value is “not soluble”.

Turning to “PPESDGFSDVRKVGYLRKPKSMHKRFFVLRAASEAGGPARLEYYENEKKWRHKSSAPKRSIPLESCFNINKRADSKNKHLVALYTRDEHFAIAADSEAEQDSWYQALLQLHNRAKGHHDGAAALGAGGGGGSCSGSSGLGEAGEDLSYGDVPPGPAFKEVWQVILKPKGLGQTKNLIGIYRLCLTSKTISFVKLNSEAAAVVLQLMNIRRCGHSENFFFIEVGRSAVTGPGEFWMQVDDSVVAQNMHETILEAMRAMSDEFRPR”, the “soluble on expression in E. coli” value is “soluble”.

With “PPRKKVATGRRDITKKSEGKPHPTQTYEHELLATQLSNKKMMPFKSQIRARSFDEYKDWVCHDGEEFLLILSGEVMFYSEFYEPVVLSEGDSVYYDANMGHMLTSVSEEDAQILWVTAK”, the “soluble on expression in E. coli” value is “not soluble”.

In the case of “PQASAKEYVTTTGLSPDGNQYSIGWEVPSTQEPARRSKRSTKDYAFETNQLENGMQTLIHIENSEAPTEYRFPLSLPQEAEVIPFSEGSED”, the “soluble on expression in E. coli” value is listed as “not soluble”.
